Laboratory results taken from publication PMC6282759, “FlhF(T368A) modulates motility in the bacteriophage carrier state of Campylobacter jejuni” (Molecular Microbiology, 2018).

Test system: Nc1nc2c(ncn2[C@@H]2O[C@H](COP(=O)(O)OP(=O)(O)OP(=O)(O)O)[C@@H](O)[C@H]2O)c(=O)[nH]1
Experiment: purified protein
Conditions: 42 °C, Tris buffer, MgCl2, GTP 0.05-1 mM

## FlhF (Campylobacter jejuni subsp. jejuni NCTC 11168 = ATCC 700819)
  Km: 75 µM
  kcat: 0.0115 s⁻¹
